This passage reports Kd, koff and kon results from patent US20060240012A1.

Assay [1] concerns the target human interleukin-6 (human) (UniProt P05231). Kind of assay: SPR (BIAcore), purified scFv. A general note: Surface plasmon resonance follows binding to a sensor surface in real time, without labels.
Assay [2] has the same target. In words: SPR (BIAcore), human IL-6 immobilised, IL6gk3-2 scFv injected at 10 to 80 nM.

One may read the Kd as the constant that tells how readily two partners part at equilibrium. Low values mean higher affinity, high ones lower affinity. The koff is the rate constant with which the complex falls apart. The term kon denotes a measure of how fast the partners come together. Lower therefore signals slow association.

Chain of UniProt P05231 (P05231 29-212 limits assumed): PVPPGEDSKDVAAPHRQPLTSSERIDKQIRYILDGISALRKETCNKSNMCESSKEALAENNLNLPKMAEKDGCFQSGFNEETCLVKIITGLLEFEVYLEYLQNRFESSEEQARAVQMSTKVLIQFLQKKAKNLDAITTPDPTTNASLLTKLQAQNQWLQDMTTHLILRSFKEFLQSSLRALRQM

B1: IL6gk3-2 scFv (purified soluble single chain Fv of the human anti-human IL-6 antibody clone IL6gk3-2) (scFv, part only; not given: linker and E-tag, V domains shown, not shown: another chain or arm of the molecule; small tags and cut ends)
VH: QVNLRESGGDLVKPGGSLRLSCAASGFTFRKYYMAWIRQAPGKGPEWLSTISNSGDIIDYADSVRGRFSISRDNAQKSLYLQMTSLRPDDSAIYYCAREYFFSFDVWGRGTMVTVSS
VL: DIVMTQSPSSVSASVGDRVTIFCRASQDIRNWVAWYQQKPGEAPKLLIYDGSSLQSGVPSRFSGSGSGTEFTLTISSLQPEDFATYYCQQSDSTPITFGQGTRLEIK
For the molecule B1, in assay [1], the Kd is 13 nM. In addition, in assay [2], the koff came out at 0.0008 s⁻¹ and the kon came to 60000 M⁻¹ s⁻¹.
